This is an account of results in publication PMC7015241.

Read-outs that look alike come from different tables or passages of the source.

In assay [1] the target is Filamentous actin (F-actin) (rabbit) (UniProt P68135). Kind of assay: co-sedimentation; 1–30 μM polymerized actin incubated with 10 μM MYPN Ig3, Ig4 or Ig3–4 domain for 1 h in 100 μL, 150 000×g for 30 min; SDS-PAGE of supernatants and pellets, densitometry; F-buffer (Tris, KCl, MgCl2, DTT, pH 8.0).
Assay [2] has as its target F-actin (Oryctolagus cuniculus) (UniProt P68135). Conditions: cited from earlier work.
Assay [3] shares this target. Conditions: cited from earlier work. This is another data set of the same source.

For the substance “Myopalladin (MYPN) Ig3 domain (domain or fragment)”, the Kd – broadly, the constant that tells how readily two partners part at equilibrium – in assay [1] was 7.6 µM.

On to PALLD Ig3-4 (from UniProt Q9ET54), for which the equilibrium dissociation constant (Kd) in assay [2] was 9 µM.

Turning to PALLD Ig3 (from UniProt Q9ET54), in assay [3], the Kd is 70 µM.
